Assay results taken from patent US20250188133A1, “CHIMERIC BACTERIOCINS AND METHOD FOR THE CONTROL OF PSEUDOMONAS” (priority 2022, published 2025).

Key:
Assay type in all cases: cell-based
P. aeruginosa strains = assay: agar disc-diffusion assay, panel of 25 strains
How it was run: (§1)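 Lawns came from overnight CAA cultures set to OD595=1.0, diluted 100× and swabbed onto 1.5% CAA agar. Paper discs (6 mm) carried 0.3–30 μg of chimeric pyocins. Inhibition zones were scored after overnight incubation at 37° C.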

P. aeruginosa PAO1 [1] = assay: ex vivo porcine corneas as model for bacterial keratitis; conditions: 5 μg applied 16-20 h after colonization, further 16-20 h incubation
Protocol: (§2) Preparation of porcine corneas. Porcine eyes were acquired from the nearest slaughterhouse. Enucleated eyes were stored at −70° C. Before the start of experiment, eyes were transferred to 4° C. for 1 hour, then to room temperature for 1-2 hours until the eyeballs were completely defrosted. Then eyeballs were individually placed in sterile plastic containers and submerged for 5 min in 2.5% Povidone-iodine (Betadine 100 mg/ml; EGIS Pharmaceuticals PLC), then twice washed with sterile PBS. The corneas were excised with sterile surgical blade No. #12. The excised corneas were stored in Minimum Essential Medium (MEM) supplemented with Non-Essential Amino Acids, L-Glutamine (2 mM), penicillin (200 U/ml)+spectinomycin (25 μg/ml) until further use at 4° C. up to two weeks.
(§3) Cornea infection and pyocin treatment. P. aeruginosa was grown overnight from frozen stock. Next morning, the culture was diluted 100 fold by fresh LB medium, and grown until OD595=˜0.6 (˜6 hours). Bacteria were collected by centrifugation and re-suspended in PBS. The dissected corneas were placed on agarose-gelatin (0.5% each) solid support in a 6-well culture plate containing 800 μL MEM with antibiotics (100 U/ml penicillin, 25 μg/ml spectinomycin), then three horizontal and 3 vertical scratches were made using a sterile 25 gauge needle. 3×10^4 CFU of P. aeruginosa ATCC 19660 strain or 0.4×10^4 CFU of PAO1 strain were applied to cornea and incubated for 16-20 hours in 37° C. CO2 incubator ([…]). 5 corneas were used for each experimental point. After incubation with P. aeruginosa, the corneas were visually inspected for opacity. The corneas which were clear and without signs of infection were considered as non-infected and discarded from further study. 5 μg of S5-PmnH (in 5 μl of PBS) or 5 μl of PBS were applied to infected corneas and incubated for additional 16-20 hours in 37° C. CO2 incubator.
(§4) Homogenization and CFU counting. Prior the homogenization the corneas were washed 3 times for 10 min in 50 ml sterile PBS with occasional agitation. Each cornea was chopped in 4 equal parts, trying to get rid of sclera. […]

P. aeruginosa ATCC 19660 = assay: as above; conditions: 5 μg applied 16-20 h after colonization, further 16-20 h incubation
Protocol: as §2, §3, §4

P. aeruginosa EY76 = assay: agar disc-diffusion assay; conditions: strain EY76; 0.3, 3 and 30 μg of protein spotted on discs on CAA agar lawn, overnight
How it was run: as §1

P. aeruginosa UR78 = assay: agar disc-diffusion assay; conditions: strain UR78; 0.3, 3 and 30 μg of protein spotted on discs on CAA agar lawn, overnight
How it was run: as §1

[2] = test system: P. aeruginosa Boston 41501 (ATCC 27853); assay: agar disc-diffusion assay; conditions: strain Boston; 0.3, 3 and 30 μg of protein spotted on discs on CAA agar lawn, overnight
How it was run: as §1

P. aeruginosa Pr335 = assay: agar disc-diffusion assay; conditions: strain Pr335; 0.3, 3 and 30 μg of protein spotted on discs on CAA agar lawn, overnight
How it was run: as §1

P. aeruginosa HP1 = assay: agar disc-diffusion assay; conditions: strain HP1; 0.3, 3 and 30 μg of protein spotted on discs on CAA agar lawn, overnight
How it was run: as §1

P. aeruginosa HP41 = assay: agar disc-diffusion assay; conditions: strain HP41; 0.3, 3 and 30 μg of protein spotted on discs on CAA agar lawn, overnight
How it was run: as §1

P. aeruginosa PAO1 [3] = assay: agar disc-diffusion assay; conditions: strain PAO1; 0.3, 3 and 30 μg of protein spotted on discs on CAA agar lawn, overnight
How it was run: as §1

P. aeruginosa HP52 = assay: agar disc-diffusion assay; conditions: strain HP52; 0.3, 3 and 30 μg of protein spotted on discs on CAA agar lawn, overnight
How it was run: as §1

P. aeruginosa HP7 = assay: agar disc-diffusion assay; conditions: strain HP7; 0.3, 3 and 30 μg of protein spotted on discs on CAA agar lawn, overnight
How it was run: as §1

P. aeruginosa NCTC 13921 = assay: agar disc-diffusion assay; conditions: strain NCTC 13921; 0.3, 3 and 30 μg of protein spotted on discs on CAA agar lawn, overnight
How it was run: as §1

P. aeruginosa HP6 = assay: agar disc-diffusion assay; conditions: strain HP6; 0.3, 3 and 30 μg of protein spotted on discs on CAA agar lawn, overnight
How it was run: as §1

P. aeruginosa HP40 = assay: agar disc-diffusion assay; conditions: strain HP40; 0.3, 3 and 30 μg of protein spotted on discs on CAA agar lawn, overnight
How it was run: as §1

B1: S5-PmnH (protein)
chain: MSNDNEVPGSMVIVAQGPDDQYAYEVPPIDSAAVAGNMFGDLIQREIYLQKNIYYPVRSIFEQGTKEKKEINKKVSDQVDGLLKQITQGKREATRQERVDVMSAVLHKMESDLEGYKKTFTKGPFIDYEKQSSLSIYEAWVKIWEKNSWEERKKYPFQQLVRDELERAVAYYKQDSLSEAVKVLRQELNKQKALKEKEDLSQLERDYRTRKANLEMKVQSELDQAGSALPPLVSPTPEQWLERATRLVTQAIADKKQLQTTNNTLIKNSPTPLEKQKAIYNGELLVDEIASLQARLVKLNAETTRRRTEKELTPDEKAAYTDAVSFVSTANEQMLQKYGANLSKVAQDMQAEIAGKKVRSYAEAMATFEKISANPAMKLNALDTQAVVDALNALDKASFADNITRLGKAFGVVGKVVQAEAIREKTVSGFQTGDWKPLMLELEAMAVGTGAGILLATSMAFFFPVFASAAAGVVVVALMMAATAAYFDAAKVDEINNLILN
modifications: Chimeric S5-PmnH
P. aeruginosa strains; clinical isolates HP6 and HP7, S5 gave turbid zones with 3 μg and 30 μg
  inhibition on lawns of S5 producer strains HP6 and HP7: significantly larger and clearer than those formed by S5
P. aeruginosa strains; panel of 25 P. aeruginosa strains, in words
  activity spectrum / profile in agar disc diffusion assay: broadened activity spectrum in comparison to pyocin S5
P. aeruginosa strains; six pyocin S5 and immunity gene-positive strains (PA14, PAO1, HP6, HP7, ATCC 19660, NCTC 13921)
  inhibition zones on lawns of S5-producing strains: formed inhibition zones on the lawns of all six S5-producing strains
P. aeruginosa PAO1 [1]
  burden in treated corneas (average): 10 CFU per cornea
  reduction of burden vs untreated corneas: 6.6 log10
P. aeruginosa ATCC 19660
  reduction of CFU number: 5.3 log10
P. aeruginosa EY76
  Activity in agar disc-diffusion assay: *** (activity detected with 0.3 μg of protein)
P. aeruginosa UR78
  Activity in agar disc-diffusion assay: *** (activity detected with 0.3 μg of protein)
[2]
  Activity in agar disc-diffusion assay: *** (activity detected with 0.3 μg of protein)
P. aeruginosa Pr335
  Activity in agar disc-diffusion assay: *** (activity detected with 0.3 μg of protein)
P. aeruginosa HP1
  Activity in agar disc-diffusion assay: *** (activity detected with 0.3 μg of protein)
P. aeruginosa HP41
  Activity in agar disc-diffusion assay: *** (activity detected with 0.3 μg of protein)
P. aeruginosa PAO1 [3]
  Activity in agar disc-diffusion assay: *** (activity detected with 0.3 μg of protein)
P. aeruginosa HP52
  Activity in agar disc-diffusion assay: ** (activity detected with 3 μg of protein)
P. aeruginosa HP7
  Activity in agar disc-diffusion assay: *** (activity detected with 0.3 μg of protein)
P. aeruginosa NCTC 13921
  Activity in agar disc-diffusion assay: *** (activity detected with 0.3 μg of protein)
P. aeruginosa HP6
  Activity in agar disc-diffusion assay: *** (activity detected with 0.3 μg of protein)
P. aeruginosa HP40
  Activity in agar disc-diffusion assay: *** (activity detected with 0.3 μg of protein)
